Experimental data as given in PMC3656113.

Assays:
[1] = target: platelet activating factor receptor (PAFr) of 16HBE14 human bronchial epithelial cells (human (endogenous in 16HBE14)) (UniProt P25105)
[2] = target: recombinant human PAFr coupled to the G-protein Giα3β1γ2 (UniProt P25105); assay: ELISA
[3] = target: recombinant human PAFr coupled to the G-protein Giα2β1γ2 (UniProt P25105); assay: ELISA

pili of N. meningitidis strain 8013SBpptA8G (ChoP+) (natural protein)
> 2 fold: adherence of 8013SBpptA8G bacteria to Chem-1-PAFr cells, fold increase against 8013SB WT bacteria (fluorescence, 30 min) [1] | fold increase against pili of 8013SB WT [2] | fold increase against pili of 8013SB WT [3]
